Assay results published in USRE44359 (Hoffmann-La Roche Inc, dated 2013).

Molecular target: T1, Recombinant P-selectin (R&D Systems) (human, UniProt P16109 42-771)
T1 construct: extracellular domain; also called recombinant human P-selectin; recombinant truncated form of P-selectin
T1 sequence (looked up): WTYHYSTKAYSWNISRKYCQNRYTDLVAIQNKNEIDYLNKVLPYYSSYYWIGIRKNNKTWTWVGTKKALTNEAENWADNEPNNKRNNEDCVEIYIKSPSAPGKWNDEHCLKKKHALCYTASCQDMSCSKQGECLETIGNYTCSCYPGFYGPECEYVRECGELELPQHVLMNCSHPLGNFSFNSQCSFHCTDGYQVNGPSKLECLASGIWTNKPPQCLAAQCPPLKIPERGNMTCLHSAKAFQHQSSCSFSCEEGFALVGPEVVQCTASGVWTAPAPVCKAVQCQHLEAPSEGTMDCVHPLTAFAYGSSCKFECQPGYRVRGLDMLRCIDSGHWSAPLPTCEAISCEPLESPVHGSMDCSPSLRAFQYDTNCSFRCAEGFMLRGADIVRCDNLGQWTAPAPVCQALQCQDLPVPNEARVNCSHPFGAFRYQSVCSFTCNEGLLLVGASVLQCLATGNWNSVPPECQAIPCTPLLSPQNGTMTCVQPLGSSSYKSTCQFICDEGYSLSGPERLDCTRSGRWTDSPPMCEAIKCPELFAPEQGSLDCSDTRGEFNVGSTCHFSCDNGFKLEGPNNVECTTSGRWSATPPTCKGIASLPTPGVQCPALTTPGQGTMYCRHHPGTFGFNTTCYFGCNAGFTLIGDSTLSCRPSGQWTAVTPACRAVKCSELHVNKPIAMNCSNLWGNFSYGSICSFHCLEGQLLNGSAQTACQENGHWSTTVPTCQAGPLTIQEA
Experiment: SPR, BIACORE 2000; antibody captured by anti-human Fcγ on CM5, recombinant P-selectin 0-50 nM as analyte; 1:1 Langmuir fit

B1: HuMab 017 (antibody, V domains shown)
VH: QPQLVQSGAEVKKPGASVKVSCKVSGNTLTELSMHWVRQAPGKGLEWMGGFDPENGEAIYAQKFQGRVTMTADTSTDTAYMDLSSLRSEDTAVYYCATDLAGGSDFYYYGLDVWGQGTTVTVSS
VL: AIQLTQSPSSLSASVGDRVTITCRASQGISSALAWYQQKPGKAPKLLIYDASSLESGVPSRFSGSGSGTDFTLTISSLQPEDFATYYCQQFNSYPYTFGQGTKLEIK
notes: Human monoclonal antibody; kappa light and gamma1 heavy chains by the cloning section; also called antibody 017; LC 1004-017
Ka: 5.59e+09 M⁻¹
